According to article PMC11117730 (2024):
Like-named read-outs stand apart in the source and are kept apart here.

Assays:
Experiment in all cases: SPR
mouse IL-33 = biological target: T1, mouse IL-33 (mouse, UniProt Q8BVZ5 1-266)
T1 chain: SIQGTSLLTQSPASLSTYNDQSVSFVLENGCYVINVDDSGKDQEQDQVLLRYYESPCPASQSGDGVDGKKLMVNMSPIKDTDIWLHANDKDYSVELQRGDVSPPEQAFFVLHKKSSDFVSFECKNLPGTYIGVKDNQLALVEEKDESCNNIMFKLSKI

anti-IL-17A = biological target: anti-IL-17A
anti-IL-17A-sST2 [1] = biological target: T2, anti-IL-17A-sST2 (mouse, UniProt P14719 27-332)
anti-IL-17A-sST2 [2] = biological target: T2, anti-IL-17A-sST2; remark: listed apart in the source

B1: sST2-Fc (Fc fusion)
chain: SKSSWGLENEALIVRCPQRGRSTYPVEWYYSDTNESIPTQKRNRIFVSRDRLKFLPARVEDSGIYACVIRSPNLNKTGYLNVTIHKKPPSCNIPDYLMYSTVRGSDKNFKITCPTIDLYNWTAPVQWFKNCKALQEPRFRAHRSYLFIDNVTHDDEGDYTCQFTHAENGTNYIVTATRSFTVEEKGFSMFPVITNPPYNHTMEVEIGKPASIACSACFGKGSHFLADVLWQINKTVVGNFGEARIQEEEGRNESSSNDMDCLTSVLRITGVTEKDLSLEYDCLALNLHGMIRHTIRLRRKQPIDHR
Mouse IL-33
  koff: 0.000199 s⁻¹

B2: mouse IL-17A (protein)
chain: AAIIPQSSACPNTEAKDFLQNVKVNLKVFNSLGAKVSSRRPSDYLNRSTSPWTLHRNEDPDRYPSVIWEAQCRHQRCVNAEGKLDHHMNSVLIQQEILVLKREPESCPFTFRVEKMLVGVGCTCVASIVRQAA
anti-IL-17A
  Kd: 0.0265 nM
  koff: 1.57e-05 s⁻¹
anti-IL-17A-sST2 [1]
  Kd: 0.0457 nM
  koff: 2.17e-05 s⁻¹

B3: mouse IL-33 (ligand)
chain: MRPRMKYSNSKISPAKFSSTAGEALVPPCKIRRSQQKTKEFCHVYCMRLRSGLTIRKETSYFRKEPTKRYSLKSGTKHEENFSAYPRDSRKRSLLGSIQAFAASVDTLSIQGTSLLTQSPASLSTYNDQSVSFVLENGCYVINVDDSGKDQEQDQVLLRYYESPCPASQSGDGVDGKKLMVNMSPIKDTDIWLHANDKDYSVELQRGDVSPPEQAFFVLHKKSSDFVSFECKNLPGTYIGVKDNQLALVEEKDESCNNIMFKLSKI
anti-IL-17A-sST2 [2]
  koff: 0.000143 s⁻¹
